Assay results published in US20260317410 (published 2026).

Assays:
His-Nectin-4 ECD = target: T1, His-Nectin-4 ECD (human, UniProt Q96NY8); experiment: BLI, 26C
T1 chain: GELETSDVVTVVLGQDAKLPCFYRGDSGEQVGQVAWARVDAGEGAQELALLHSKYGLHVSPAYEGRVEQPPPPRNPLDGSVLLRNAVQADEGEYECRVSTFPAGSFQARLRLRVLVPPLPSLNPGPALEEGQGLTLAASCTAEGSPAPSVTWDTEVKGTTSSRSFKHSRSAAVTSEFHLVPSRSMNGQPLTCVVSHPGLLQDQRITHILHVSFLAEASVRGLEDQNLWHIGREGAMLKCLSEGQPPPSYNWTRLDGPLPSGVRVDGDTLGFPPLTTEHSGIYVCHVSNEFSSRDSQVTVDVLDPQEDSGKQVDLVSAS

Fc-Nectin-4 IgV = target: T2, Fc-Nectin-4 IgV (human, UniProt Q96NY8); experiment: BLI, 26C, bivalent analyte
T2 chain: T1 chain

- Kd (His-Nectin-4 ECD): 5.2 nM
- Kd (Fc-Nectin-4 IgV): 12.9 nM
B1: HA22 (Enfortumab) (antibody, V domains shown)
VH: EVQLVESGGGLVQPGGSLRLSCAASGFTFSSYNMNWVRQAPGKGLEWVSYISSSSSTIYYADSVKGRFTISRDNAKNSLSLQMNSLRDEDTAVYYCARAYYYGMDVWGQGTTVTVSS
VL: DIQMTQSPSSVSASVGDRVTITCRASQGISGWLAWYQQKPGKAPKFLIYAASTLQSGVPSRFSGSGSGTDFTLTISSLQPEDFATYYCQQANSFPPTFGGGTKVEIK
